Patent US20230340071A1 (published 2023)

Columns and labels:
[1] = target: T1, Biotinylated hIL2RB (UniProt P14784 27-240, biotinylated (site not stated)); assay: BLI
T1 chain: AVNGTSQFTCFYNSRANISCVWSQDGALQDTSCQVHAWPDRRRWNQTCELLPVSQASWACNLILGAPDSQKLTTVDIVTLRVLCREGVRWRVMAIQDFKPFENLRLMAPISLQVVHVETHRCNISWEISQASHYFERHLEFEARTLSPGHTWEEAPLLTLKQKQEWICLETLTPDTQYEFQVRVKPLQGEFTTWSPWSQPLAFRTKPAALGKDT

[2] = target: T2, Biotinylated hIL2RG (human, UniProt P31785 23-262, limits assumed, biotinylated (site not stated)); assay: BLI (Octet RED96), biotinylated hIL2RG on streptavidin sensors, 200 nM protein + 200 nM hIL2RB
T2 construct: also called human common gamma receptor (hIL2RG); hIL-2Rγc
T2 sequence: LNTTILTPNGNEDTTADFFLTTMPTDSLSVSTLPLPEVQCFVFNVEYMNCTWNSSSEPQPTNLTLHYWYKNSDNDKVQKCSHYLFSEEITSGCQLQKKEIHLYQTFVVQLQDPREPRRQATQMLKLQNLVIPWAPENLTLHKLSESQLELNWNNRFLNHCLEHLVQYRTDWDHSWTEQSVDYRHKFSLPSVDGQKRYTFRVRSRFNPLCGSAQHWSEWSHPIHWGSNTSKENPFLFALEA
Description: Biotinylated hIL2RG molecules were immobilized to Streptavidin sensors (SA, ForteBio) at 2 μg/mL in binding buffer (10 mM HEPES, pH 7.4, 150 mM NaCl, 3 mM EDTA, 0.05% surfactant P20, 0.5% non-fat dry milk). After baseline measurement in the binding buffer alone, the binding kinetics were monitored by dipping the biosensors in wells containing 200 nM of protein and 200 nM of hIL2RB for 300 sec. Data were collected in an Octet RED96 (ForteBio) and processed using the instrument's integrated software.

[3] = target: T3, hIL2RB-fc chimera (human, UniProt P14784 27-240); assay: BLI (Octet RED96e), hIL2RB-fc (Symansis) on anti-human IgG Fc sensors
T3 construct: also called hIL2 receptor beta; hIL-2Rβ; not shown: Fc part of the bought chimera (captured on anti-human IgG Fc biosensors)
T3 sequence: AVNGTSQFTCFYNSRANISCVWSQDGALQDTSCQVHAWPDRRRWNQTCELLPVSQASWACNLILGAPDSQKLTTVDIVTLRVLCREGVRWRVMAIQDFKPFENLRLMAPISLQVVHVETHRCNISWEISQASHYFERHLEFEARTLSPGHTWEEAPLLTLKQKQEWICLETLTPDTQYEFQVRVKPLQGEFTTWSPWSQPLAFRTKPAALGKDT
Description: For this purpose, sensors were soaked in samples containing 20 nM of hIL2RB-fc chimera (Symansis) for 300 sec. […] Finally, sensors were removed from the protein samples and dipped in buffer solutions to promote and measure dissociation (1500 sec). The buffer used to prepare all the samples and soak the sensors was HBS-EP+from GE Healthcare, which contains 10 mM HEPES, 150 mM NaCl, 3 mM EDTA and 0.05% v/v surfactant P20, pH 7.4. Data were acquired at 30° C. using an Octet RED96e system (ForteBio) and processed using the instrument's integrated software. Kinetics were fitted to a 1:1 binding model after subtracting a buffer signal baseline and the Kd values were calculated.

[4] = target: T3, hIL2RB-fc chimera; assay: BLI competition: hIL2RG-fc on sensor, dilutions of P4 + 20 nM Neo-2/15 + 50 nM hIL2RB-fc; competitor Neo-2/15; read-out binding to hIL2RBG
Description: (§1) All samples were prepared using HBS-EP+buffer from GE Healthcare, which contains 10 mM HEPES, 150 mM NaCl, 3 mM EDTA and 0.05% v/v surfactant P20, pH 7.4. Data were acquired at 30° C. using an Octet RED96e system (ForteBio) and processed using the instrument's integrated software. IC50 values were estimated from response vs antagonist concentration plots.

[5] = target: T4, mouse IL-2 beta receptor (mouse, UniProt P16297 27-240); assay: method not stated
T4 construct: also called mIL2RB; beta part of mIL2RBG
T4 sequence (looked up): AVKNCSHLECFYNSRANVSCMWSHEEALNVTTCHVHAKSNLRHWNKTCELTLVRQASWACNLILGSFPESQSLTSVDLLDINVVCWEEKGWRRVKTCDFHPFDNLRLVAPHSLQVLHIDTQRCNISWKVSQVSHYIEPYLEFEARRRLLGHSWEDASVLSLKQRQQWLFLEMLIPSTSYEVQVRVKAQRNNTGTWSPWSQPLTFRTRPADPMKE

[6] = target: T4, mouse IL-2 beta receptor; assay: BLI competition: mIL2RG on sensor, dilutions of P4 + 20 nM Neo-2/15; competitor Neo-2/15; read-out binding to mIL2RBG
Description: as §1

[7] = target: T5, human IL-2 receptor (IL-2Rβγc) on cells (human, UniProt P14784 27-551; P31785 23-369); assay: cell-based or functional assay
T5 sequence 1: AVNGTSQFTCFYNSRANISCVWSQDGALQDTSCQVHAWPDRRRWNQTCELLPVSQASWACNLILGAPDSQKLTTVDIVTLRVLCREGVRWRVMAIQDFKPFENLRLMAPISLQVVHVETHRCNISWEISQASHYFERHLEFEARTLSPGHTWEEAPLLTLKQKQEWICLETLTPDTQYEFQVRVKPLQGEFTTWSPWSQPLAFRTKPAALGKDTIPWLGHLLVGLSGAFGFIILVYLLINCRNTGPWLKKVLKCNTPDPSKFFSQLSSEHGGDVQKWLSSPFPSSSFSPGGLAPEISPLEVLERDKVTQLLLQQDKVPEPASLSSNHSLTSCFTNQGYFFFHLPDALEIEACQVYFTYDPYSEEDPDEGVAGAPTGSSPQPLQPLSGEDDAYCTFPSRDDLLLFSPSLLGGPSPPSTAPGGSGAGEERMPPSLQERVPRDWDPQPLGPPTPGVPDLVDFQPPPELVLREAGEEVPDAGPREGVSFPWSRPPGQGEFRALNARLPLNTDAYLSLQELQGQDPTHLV
T5 sequence 2: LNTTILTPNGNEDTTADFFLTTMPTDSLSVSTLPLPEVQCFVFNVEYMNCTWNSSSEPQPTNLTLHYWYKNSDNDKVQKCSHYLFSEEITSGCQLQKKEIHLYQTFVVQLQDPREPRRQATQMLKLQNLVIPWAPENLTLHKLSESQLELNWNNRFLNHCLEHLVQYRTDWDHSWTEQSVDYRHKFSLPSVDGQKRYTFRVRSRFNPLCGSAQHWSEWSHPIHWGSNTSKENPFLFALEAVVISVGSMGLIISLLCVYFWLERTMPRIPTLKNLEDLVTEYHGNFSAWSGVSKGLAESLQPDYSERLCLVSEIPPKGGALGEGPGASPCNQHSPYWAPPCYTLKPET

[8] = target: T6, hIL-2RBG (biotinylated hIL2RG on the sensor with hIL2RB in solution) (UniProt P14784 27-240; P31785 23-262, biotinylated (site not stated)); assay: BLI competition, inhibition of hIL-2 binding
T6 chain 1: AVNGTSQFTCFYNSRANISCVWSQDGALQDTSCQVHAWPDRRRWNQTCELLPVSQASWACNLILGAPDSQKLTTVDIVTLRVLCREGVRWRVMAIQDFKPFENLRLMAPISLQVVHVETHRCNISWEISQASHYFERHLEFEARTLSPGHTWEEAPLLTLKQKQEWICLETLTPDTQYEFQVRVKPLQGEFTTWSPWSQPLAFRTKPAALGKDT
T6 chain 2: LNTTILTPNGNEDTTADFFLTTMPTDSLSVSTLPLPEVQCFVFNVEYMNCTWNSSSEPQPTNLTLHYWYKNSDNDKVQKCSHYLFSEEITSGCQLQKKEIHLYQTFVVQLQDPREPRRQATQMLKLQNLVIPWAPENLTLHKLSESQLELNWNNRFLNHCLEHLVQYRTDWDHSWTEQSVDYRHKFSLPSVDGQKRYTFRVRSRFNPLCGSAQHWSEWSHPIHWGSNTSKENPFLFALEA

[9] = target: T7, hIL2RG-fc chimera (human, UniProt P31785 23-262); assay: BLI (Octet RED96e), hIL2RG-fc on anti-human IgG Fc sensors, 200 nM P4 + 200 nM hIL2RB-fc
T7 construct: also called hIL2G; hIL2 receptor gamma; not shown: Fc part of the bought chimera (captured on anti-human IgG Fc biosensors)
T7 sequence: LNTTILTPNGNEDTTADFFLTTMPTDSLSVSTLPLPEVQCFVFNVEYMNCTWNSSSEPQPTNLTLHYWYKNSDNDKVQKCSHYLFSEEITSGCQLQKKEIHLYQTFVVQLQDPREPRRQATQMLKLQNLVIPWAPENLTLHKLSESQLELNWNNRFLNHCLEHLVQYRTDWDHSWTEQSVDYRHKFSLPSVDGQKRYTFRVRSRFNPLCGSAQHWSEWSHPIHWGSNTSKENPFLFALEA
Description: All samples were prepared using HBS-EP+ buffer from GE Healthcare, which contains 10 mM HEPES, 150 mM NaCl, 3 mM EDTA and 0.05% v/v surfactant P20, pH 7.4. Data were acquired at 30° C. using an Octet RED96e system (ForteBio) and processed using the instrument's integrated software.

[10] = target: T5, human IL-2 receptor (IL-2Rβγc) on cells; assay: cell-based or functional assay; remark: listed apart in the source

B1: Protein 4 (P4) (designed binder)
chain: PKKKIQLYAEHALYDAEMILKIVKTNSPPAEEELEDYAFNFELILEEIARLFESGDQKDEAEKAKRMKEWMKRIKTTASEDEQEEMANRIRKILEEWIRS
notes: P2 with H8Y and K33E; N-terminal 6xHis tag and thrombin site in the expression vector; also called S4
Kd [1]: < 1 nM | binding result [2]: no binding (tested: 200 nM) | Kd [3]: 0.06 nM | IC50 [4]: 0.9 nM | Kd [5]: 70.6 nM | IC50 [6]: 67.6 nM | Signaling Inhibition IC50 (1 nM hIL-2, pSTAT5, CD4+ T cells) [7]: 1.46 nM | Signaling Inhibition IC50 (1 nM hIL-2, pSTAT5, CD8+ T cells) [7]: 0.3 nM | Signaling Inhibition IC50 (1 nM hIL-2, pSTAT5, all T cells) [7]: 0.49 nM | IC50 [8]: 88 nM | binding result [9]: no binding (tested: 200 nM) | Binding Inhibition IC50 (inhibition of hIL-2 pSTAT5 signaling, human pan T cells, 0.1 nM hIL2) [10]: 0.1 nM | Binding Inhibition IC50 (inhibition of hIL-2 pSTAT5 signaling, human pan T cells, 1 nM hIL2) [10]: 0.45 nM | Binding Inhibition IC50 (inhibition of hIL-2 pSTAT5 signaling, human pan T cells, 10 nM hIL2) [10]: 3.3 nM
